Experiment [1] addresses T1, human insulin-like growth factor-II (IGF-II) (human, UniProt P01344 25-91).
T1 construct: also called IGF2; IGF-2
As to the kind of experiment: Biacore low-resolution screen, mAb captured, IGF-II injected. On the technique in general: SPR reads the build-up and loss of mass on a sensor chip optically.

For experiment [2], the target named is T1, human insulin-like growth factor-II …. As to the kind of experiment: Biacore high-resolution, mAb captured, IGF-II injected over a range of concentrations.
Experiment [3] concerns the target T2, human insulin-like growth factor-I (IGF-I) (human, UniProt P05019 49-118).
T2 construct: also called IGF1; IGF-1
Nature of the experiment: Biacore low-resolution analysis, IGF-I.

For experiment [4], the target named is T1, human insulin-like growth factor-II …. Nature of the experiment: cell-based or functional assay.
Experiment [5] has as its target T2, human insulin-like growth factor-I …. As to the kind of experiment: cell-based or functional assay.
In experiment [6] the target is T1, human insulin-like growth factor-II …. As to the kind of experiment: cell-based or functional assay. The source holds these as a separate data set.
Experiment [7] has as its target T2, human insulin-like growth factor-I …. Nature of the experiment: cell-based or functional assay. The source holds these as a separate data set.
In experiment [8] the target is T1, human insulin-like growth factor-II …. As to the kind of experiment: cell-based or functional assay. This is another data set of the same source.
Experiment [9] addresses T2, human insulin-like growth factor-I …. As to the kind of experiment: cell-based or functional assay. This is another data set of the same source.
For experiment [10] the target is unchanged. Nature of the experiment: Biacore high-resolution, mAb captured, IGF-I injected over a range of concentrations.
Experiment [11] shares this target. As to the kind of experiment: Biacore low-resolution screen, mAb captured, IGF-I injected.
The target in experiment [12] is T1, human insulin-like growth factor-II …. As to the kind of experiment: Biacore low-resolution analysis, IGF-II.
For experiment [13], the target named is mouse IGF-I (mouse, UniProt P05017 49-118). Nature of the experiment: cell-based or functional assay.
In experiment [14] the target is mouse IGF-II (mouse, UniProt P09535 25-91). Nature of the experiment: cell-based or functional assay.
Experiment [15] deals with T1, human insulin-like growth factor-II …. Nature of the experiment: cell-based or functional assay. This is another data set of the same source.
Experiment [16] addresses T3, IGF-II/IGFBP-3 complex (UniProt P01344 25-91).
T3 construct: Preformed non-covalent complex; IGF-II 99.97% complexed by IGFBP-3; also called complexed IGF-II/IGFBP-3
Nature of the experiment: Biacore, mAb immobilised, preformed complex injected.

The target in experiment [17] is T4, IGF-I/IGFBP-3 complex (UniProt P05019 49-118).
T4 construct: Preformed non-covalent complex; IGF-I 99.97% complexed by IGFBP-3; also called complexed IGF-I/IGFBP-3
Described as above.

Experiment [18] concerns the target T5, Recombinant human IGF-I (insulin-like growth factor-I) (human, UniProt P05019 49-118).
T5 construct: Bought; also called IGF1; IGF-1
As to the kind of experiment: limited antigen ELISA, supernatant 1:25.

Experiment [19] deals with T6, Recombinant human IGF-II (insulin-like growth factor-II) (human, UniProt P01344 25-91).
T6 construct: Bought; also called IGF2; IGF-2
Nature of the experiment: limited antigen ELISA, supernatant 1:25. (In general: An ELISA detects its analyte on a solid surface through an enzyme-linked reagent.)

Experiment [20] concerns the target T7, human insulin (human, UniProt P01308 25-54; P01308 90-110, limits assumed).
T7 construct: The mature hormone has an A and a B chain cut from the precursor; also called recombinant insulin; hu-Insulin
As to the kind of experiment: Biacore, mAb on CM5 chip, insulin injected.

As usually defined, the Kd is the concentration at which binding is half-saturated. A high value points to a looser complex. As a reminder, the koff is the first-order rate constant of dissociation. Higher therefore signals fast dissociation. Usually kon stands for the second-order rate constant of association. A higher kon goes with faster complex formation.

B1: mAb 7.234.2 (antibody, V domains shown)
VH: QLQLQESGPGLVKPSETLSLTCTVSGGSINSSSNYWGWIRQPPGKGLAWIGGIYYSGSTYYNPSLRSRVTMSVDTSKNQFSLKLSSVTAADTAVYYCARQRGHSSGWWYFDLWGRGTLVTVSS
VL: DIQMTQSPSSVSASVGDRVTITCRASRGISSWLAWYQQRPGKAPKLLIYTASSLQSGVPSRFSGSGSGTDFTLTISSLQPEDFATYYCQQANSFPFTFGPGTKVDIKR
notes: Kappa light chain (L5/JK3); also called 7.234.1; 7_234_1
Regarding B1, in experiment [1], binding was characterised by a dissociation constant (Kd) of 0.0453 nM, the off-rate constant (koff) is 0.00029 s⁻¹ and the kon is 6.4e+06 M⁻¹ s⁻¹. Also, the equilibrium dissociation constant (Kd) in experiment [2] came to 0.295 nM. In experiment [3], this molecule gave a Kd of 0.328 nM. In [4], the “EC50 (nM), n = 1, IGF-II pTYR, BxPC3 cells” value is 1.9 nM; the “EC50 (nM), n = 2, IGF-II pTYR, BxPC3 cells” value was 2.3 nM; the “Max % Inhibition (133.3 nM), n = 2, IGF-II pTYR, BxPC3 cells” value worked out at 77.3%; the “Max % Inhibition (333.3 nM), n = 1, IGF-II pTYR, BxPC3 cells” value was determined as 98.5%. Moreover, in experiment [5], the “EC50 (nM), n = 1, IGF-I pTYR, BxPC3 cells” value came out at 5.1 nM; the “EC50 (nM), n = 2, IGF-I pTYR, BxPC3 cells” value worked out at 2.9 nM; the “Max % Inhibition (333.3 nM), n = 1, IGF-I pTYR, BxPC3 cells” value is 97.3%; the “Max % Inhibition (333.3 nM), n = 2, IGF-I pTYR, BxPC3 cells” value is 91.5%. For the same molecule, in experiment [6], the “% MAX Activation, mean (n = 2), IGF-II pTYR of hIGF-IR in NIH3T3 cells” value came to 21.1% and the “EC50 (nM), mean (n = 2), IGF-II pTYR of hIGF-IR in NIH3T3 cells” value amounted to 7.7 nM. In experiment [7], the “% MAX Activation, mean (n = 2), IGF-I pTYR of hIGF-IR in NIH3T3 cells” value amounted to 21.1% and the “EC50 (nM), mean (n = 2), IGF-I pTYR of hIGF-IR in NIH3T3 cells” value turned out to be 24.3 nM. Also, in experiment [8], the “% Inhibition, mean (n = 2), IGF-II Proliferation Assay, NIH3T3/hIGF-IR cells” value was determined as 62.1% and the “EC50 (nM), mean (n = 2), IGF-II Proliferation Assay, NIH3T3/hIGF-IR cells” value amounted to 24.3 nM. Moreover, in [9], the “% Inhibition, mean (n = 3), IGF-I Proliferation Assay, NIH3T3/hIGF-IR cells” value was 67.3% and the “EC50 (nM), mean (n = 3), IGF-I Proliferation Assay, NIH3T3/hIGF-IR cells” value is 40.6 nM. This molecule had a Kd in [10] of 3.76 nM. In experiment [11], this molecule gave a Kd of 0.328 nM, a koff of 0.0022 s⁻¹ and a kon of 6.7e+06 M⁻¹ s⁻¹. Besides, in experiment [12], binding was characterised by a dissociation constant (Kd) of 0.0453 nM. Besides, in experiment [13], the “Mouse IGF-I EC50 (nM), n = 1, phosphorylation of hIGF-IR in NIH3T3 cells” value stood at 46 nM. The “Mouse IGF-II EC50 (nM), n = 1, phosphorylation of hIGF-IR in NIH3T3 cells” value in [14] turned out to be 36.1 nM. In addition, in experiment [15], the “EC50 (nM), n = 2, IGF-II Proliferation, BxPC3 cells” value came out at 2.6 nM; the “Max % Inhibition (133.3 nM), n = 2, IGF-II Proliferation, BxPC3 cells” value stood at 201%; the “Max % Inhibition (333.3 nM), n = 1, IGF-II Proliferation, BxPC3 cells” value came to 112%.

B2: mAb 7.251.3 (antibody, V domains shown)
VH: QVQLQESGPGLVKPSETLSLTCTVSGGSISSYYWSWIRQPPGKGLEWIGYFFYSGYTNYNPSLKSRVTISVDTSKNQFSLKLSSVTAADTAVYYCACITGTTKGGMDVWGQGTTVTVSS
VL: QSVLTQPPSVSGAPGQRVTISCTGSSSNIGAGYDVHWYQQLPGTAPKLLIYGNNNRPSGVPDRFSGSKSGTSASLAITGLQADDEADYYCQSFDSSLSGSVFGGGTKLTVLG
notes: Fully human XenoMouse hybridoma mAb, lambda light chain (V1-13/JL2); also called ATCC PTA-7422
As for B2, in experiment [1], the dissociation constant Kd was determined as 0.123 nM, the koff amounted to 0.00043 s⁻¹ and the kon is 3.5e+06 M⁻¹ s⁻¹. The molecule further displayed a Kd in [2] of 0.0474 nM. In experiment [3], this molecule returned a dissociation constant (Kd) of 0.935 nM. For the same molecule, in experiment [4], the “EC50 (nM), n = 2, IGF-II pTYR, BxPC3 cells” value worked out at 2.6 nM; the “Max % Inhibition (133.3 nM), n = 2, IGF-II pTYR, BxPC3 cells” value amounted to 91.3%; the “Max % Inhibition (333.3 nM), n = 1, IGF-II pTYR, BxPC3 cells” value turned out to be 100%. Besides, in experiment [5], the “EC50 (nM), n = 1, IGF-I pTYR, BxPC3 cells” value amounted to 7.5 nM; the “EC50 (nM), n = 2, IGF-I pTYR, BxPC3 cells” value turned out to be 5.3 nM; the “Max % Inhibition (333.3 nM), n = 1, IGF-I pTYR, BxPC3 cells” value is 95.7%; the “Max % Inhibition (333.3 nM), n = 2, IGF-I pTYR, BxPC3 cells” value was determined as 95.2%. Further, in experiment [6], the “% MAX Activation, mean (n = 2), IGF-II pTYR of hIGF-IR in NIH3T3 cells” value is 15.9% and the “EC50 (nM), mean (n = 2), IGF-II pTYR of hIGF-IR in NIH3T3 cells” value turned out to be 3 nM. Also, in experiment [7], the “% MAX Activation, mean (n = 2), IGF-I pTYR of hIGF-IR in NIH3T3 cells” value turned out to be 16.9% and the “EC50 (nM), mean (n = 2), IGF-I pTYR of hIGF-IR in NIH3T3 cells” value amounted to 14.5 nM. In [8], the “% Inhibition, mean (n = 2), IGF-II Proliferation Assay, NIH3T3/hIGF-IR cells” value is 79.2% and the “EC50 (nM), mean (n = 2), IGF-II Proliferation Assay, NIH3T3/hIGF-IR cells” value worked out at 22 nM. Moreover, in [9], the “% Inhibition, mean (n = 3), IGF-I Proliferation Assay, NIH3T3/hIGF-IR cells” value is 72.4% and the “EC50 (nM), mean (n = 3), IGF-I Proliferation Assay, NIH3T3/hIGF-IR cells” value was found to be 38.9 nM. The molecule further gave a Kd in [10] of 0.452 nM. In experiment [11], the dissociation constant Kd amounted to 0.935 nM, the koff was 0.0043 s⁻¹ and the kon is 4.6e+06 M⁻¹ s⁻¹. Also, binding in experiment [12] was put at a Kd of 0.123 nM. Further, in experiment [13], the “Mouse IGF-I EC50 (nM), n = 1, phosphorylation of hIGF-IR in NIH3T3 cells” value is 6.7 nM and the “Mouse IGF-I EC50 (nM), n = 2, phosphorylation of hIGF-IR in NIH3T3 cells” value worked out at 10.6 nM. Besides, in [14], the “Mouse IGF-II EC50 (nM), n = 1, phosphorylation of hIGF-IR in NIH3T3 cells” value amounted to 5.4 nM and the “Mouse IGF-II EC50 (nM), n = 2, phosphorylation of hIGF-IR in NIH3T3 cells” value was 8.7 nM. Besides, in experiment [15], the “EC50 (nM), n = 1, IGF-II Proliferation, BxPC3 cells” value came out at 0.5 nM; the “EC50 (nM), n = 2, IGF-II Proliferation, BxPC3 cells” value worked out at 4.4 nM; the “Max % Inhibition (133.3 nM), n = 2, IGF-II Proliferation, BxPC3 cells” value is 105%; the “Max % Inhibition (333.3 nM), n = 1, IGF-II Proliferation, BxPC3 cells” value amounted to 128%.

B3: mAb 7.251.3 (ATCC Accession Number PTA-7422) (antibody, V domains shown)
VH: B2 VH
VL: B2 VL
notes: Fully human, lambda light chain (V1-13/JL2)
B3: the dissociation constant (Kd) in experiment [16] is more than 1000 nM. In addition, the Kd in experiment [17] is more than 1000 nM. In addition, in experiment [18], the “LA OD, IGF1 2 ng/ml” value came out at 1.09 OD 450 nm and the “LA OD, IGF1 4 ng/ml” value came to 1.31 OD 450 nm. In addition, in [19], the “LA OD, IGF2 2 ng/ml” value came out at 1.02 OD 450 nm and the “LA OD, IGF2 4 ng/ml” value turned out to be 1.53 OD 450 nm. In addition, in experiment [20], the binding result was “no binding (tested: 502 nM)”.

(Values after patent US20070196376A1 (AstraZeneca / MedImmune, published 2007).)
